These results are taken from paper PMC7437983 (Traffic (Copenhagen, Denmark), 2020).

In the test the target is Nup358-min-GST, human Nup358 residues 2148-2240 (human, UniProt P49792 2148-2240). The experiment in a line: pull-down.
Chain of Nup358-min-GST, human Nup358 residues 2148-2240 (P49792 2148-2240): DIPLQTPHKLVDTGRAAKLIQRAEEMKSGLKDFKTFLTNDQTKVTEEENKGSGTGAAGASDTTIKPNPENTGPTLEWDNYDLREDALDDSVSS

B1: human Bicaudal D2 C-terminal cargo-binding domain, wild type (domain or fragment, UniProt Q8TD16 715-804, looked up)
chain: YENEKAMVTETMMKLRNELKALKEDAATFSSLRAMFATRCDEYITQLDEMQRQLAAAEDEKKTLNSLLRMAIQQKLALTQRLELLELDHE
On to B1, for which the binding result is “binds”.
